Reference: patent US20220363757A1 (SYMPHOGEN A S, published 2022)

T1: human LAG-3 domain 1-2 Fc fusion, chimeric construct #4 (mutated region AA 40-47) (human, UniProt P18627 23-266)
T1 construct: not shown: human IgG1 Fc, AA P101-K330
T1 chain: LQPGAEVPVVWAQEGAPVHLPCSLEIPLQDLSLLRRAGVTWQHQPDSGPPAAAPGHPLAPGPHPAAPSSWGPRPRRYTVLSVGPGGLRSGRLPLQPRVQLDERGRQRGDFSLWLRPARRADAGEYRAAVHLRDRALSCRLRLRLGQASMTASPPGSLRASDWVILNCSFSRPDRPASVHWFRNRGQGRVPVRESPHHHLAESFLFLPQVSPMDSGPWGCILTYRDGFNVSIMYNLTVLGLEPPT

T2: human LAG-3 domain 1-2 Fc fusion, chimeric construct #10 (mutated region AA 70-77) (human, UniProt P18627 23-266)
T2 construct: 'Q71Q' copied as printed; construct #9 prints P71Q for the same position
T2 chain: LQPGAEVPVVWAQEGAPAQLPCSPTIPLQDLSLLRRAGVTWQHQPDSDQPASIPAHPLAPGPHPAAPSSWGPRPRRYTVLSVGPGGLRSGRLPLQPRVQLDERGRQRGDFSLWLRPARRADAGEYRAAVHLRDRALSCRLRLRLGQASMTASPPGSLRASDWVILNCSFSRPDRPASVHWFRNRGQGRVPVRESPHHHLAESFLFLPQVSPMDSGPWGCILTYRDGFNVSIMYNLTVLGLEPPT

T3: human LAG-3 domain 1-2 Fc fusion, chimeric construct #14 (mutated region AA 88-97) (human, UniProt P18627 23-266)
T3 construct: not shown: human IgG1 Fc, AA P101-K330
T3 chain: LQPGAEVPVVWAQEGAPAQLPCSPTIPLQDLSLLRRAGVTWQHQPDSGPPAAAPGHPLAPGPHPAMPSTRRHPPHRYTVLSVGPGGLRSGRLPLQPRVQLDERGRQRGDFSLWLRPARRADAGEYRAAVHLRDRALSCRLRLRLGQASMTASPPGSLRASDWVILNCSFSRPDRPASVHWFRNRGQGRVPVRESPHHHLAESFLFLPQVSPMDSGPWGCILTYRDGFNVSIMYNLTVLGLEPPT

T4: human LAG-3 domain 1-2 Fc fusion, chimeric construct #16 (mutated region AA 98-105) (human, UniProt P18627 23-266)
T4 construct: not shown: human IgG1 Fc, AA P101-K330
T4 chain: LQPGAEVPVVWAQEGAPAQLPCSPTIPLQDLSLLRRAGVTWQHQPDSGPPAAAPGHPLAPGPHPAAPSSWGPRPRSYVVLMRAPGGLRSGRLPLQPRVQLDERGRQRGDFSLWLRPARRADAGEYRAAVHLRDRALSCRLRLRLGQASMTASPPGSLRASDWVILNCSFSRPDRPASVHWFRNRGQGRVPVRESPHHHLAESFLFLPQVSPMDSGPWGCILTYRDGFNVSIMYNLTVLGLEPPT

T5: human LAG-3 domain 1-2 Fc fusion, chimeric construct #18 (mutated region AA 114-119) (human, UniProt P18627 23-266)
T5 construct: not shown: human IgG1 Fc, AA P101-K330
T5 chain: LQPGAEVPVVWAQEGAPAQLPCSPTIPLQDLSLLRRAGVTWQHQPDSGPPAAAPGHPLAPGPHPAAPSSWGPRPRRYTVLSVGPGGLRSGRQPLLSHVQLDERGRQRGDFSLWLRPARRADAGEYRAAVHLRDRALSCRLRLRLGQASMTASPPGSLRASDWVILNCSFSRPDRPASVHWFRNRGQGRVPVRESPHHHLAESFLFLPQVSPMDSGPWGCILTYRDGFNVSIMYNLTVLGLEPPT

T6: human LAG-3 domain 1-2 Fc fusion, chimeric construct #19 (mutated region AA 118-127) (human, UniProt P18627 23-266)
T6 construct: not shown: human IgG1 Fc, AA P101-K330
T6 chain: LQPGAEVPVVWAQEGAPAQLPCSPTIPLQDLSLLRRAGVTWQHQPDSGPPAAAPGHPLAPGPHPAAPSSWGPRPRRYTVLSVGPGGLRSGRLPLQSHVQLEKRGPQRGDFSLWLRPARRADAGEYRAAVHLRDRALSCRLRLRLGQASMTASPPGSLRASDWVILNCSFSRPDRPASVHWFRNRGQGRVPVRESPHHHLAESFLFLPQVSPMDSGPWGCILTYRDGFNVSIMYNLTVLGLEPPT

T7: human LAG-3 domain 1-2 Fc fusion, chimeric construct #24 (mutated region AA 148-154) (human, UniProt P18627 23-266)
T7 construct: not shown: human IgG1 Fc, AA P101-K330
T7 chain: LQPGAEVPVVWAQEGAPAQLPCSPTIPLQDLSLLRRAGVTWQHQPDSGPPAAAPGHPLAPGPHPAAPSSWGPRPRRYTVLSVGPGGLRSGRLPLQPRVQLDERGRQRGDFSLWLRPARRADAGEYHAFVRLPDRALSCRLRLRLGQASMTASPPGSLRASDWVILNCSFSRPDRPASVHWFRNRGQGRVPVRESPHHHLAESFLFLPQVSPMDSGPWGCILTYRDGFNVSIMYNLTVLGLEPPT

T8: human LAG-3 domain 1-2 Fc fusion, chimeric construct #26 (mutated region AA 157-161) (human, UniProt P18627 23-266)
T8 construct: not shown: human IgG1 Fc, AA P101-K330
T8 chain: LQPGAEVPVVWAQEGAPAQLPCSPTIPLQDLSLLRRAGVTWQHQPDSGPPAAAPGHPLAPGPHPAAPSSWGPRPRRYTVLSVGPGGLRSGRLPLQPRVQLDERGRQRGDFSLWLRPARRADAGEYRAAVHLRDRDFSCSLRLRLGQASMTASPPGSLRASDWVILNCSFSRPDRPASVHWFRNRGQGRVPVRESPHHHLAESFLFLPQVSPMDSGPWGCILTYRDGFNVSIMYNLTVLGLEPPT


Legend:
Experiment in all cases: SPR, Fab over captured mutant LAG-3-Fc;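 also: LAG-3 fusion proteins captured on an anti-human IgG Fc sensor chip and read on an IBIS MX96 biosensor, Fab association and dissociation each 15 min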
[1] = biological target: T1, human LAG-3 domain 1-2 Fc fusion, …
Description: (§1) The LAG-3 fusion proteins were immobilized onto a G-a-hu-IgG Fc SensEye® (Ssens BV, The Netherlands) for 15 minutes using a Continuous Flow Microspotter (CFM, Wasatch Microfluidics, Salt Lake City, US). After spotting, the SensEye® was positioned in an IBIS MX96 biosensor and captured proteins were evaluated for binding affinity. […] Fab association was performed for 15 minutes and antigen dissociation was performed for 15 minutes. The recorded binding responses were fitted to a simple Langmuir 1:1 binding model with Scrubber 2 software for calculation of the on-rate (kon or ka), off-rate (koff or kd) and affinity (KD) constants.

[2] = biological target: T2, human LAG-3 domain 1-2 Fc fusion, …
Description: as §1

[3] = biological target: T3, human LAG-3 domain 1-2 Fc fusion, …
Description: as §1

[4] = biological target: T4, human LAG-3 domain 1-2 Fc fusion, …
Description: as §1

[5] = biological target: T5, human LAG-3 domain 1-2 Fc fusion, …
Description: as §1

[6] = biological target: T6, human LAG-3 domain 1-2 Fc fusion, …
Description: as §1

[7] = biological target: T7, human LAG-3 domain 1-2 Fc fusion, …
Description: as §1

[8] = biological target: T8, human LAG-3 domain 1-2 Fc fusion, …
Description: as §1

Binder | KD mutant/KD wild type [1] [fold] | KD mutant/KD wild type [2] [fold] | binding result [3] | KD mutant/KD wild type [4] [fold] | KD mutant/KD wild type [5] [fold] | KD mutant/KD wild type [6] [fold] | KD mutant/KD wild type [7] [fold] | KD mutant/KD wild type [8] [fold] | binding result [1] | binding result [4] | KD mutant/KD wild type [3] [fold] | binding result [6] | binding result [7] | binding result [8]
Fab fragment of antibody 15532 (Fab, V domains shown, not shown: a dimerising Fc or GST, monomeric Fab made by GingisKHAN digestion of the IgG1) VH: QVQLQQWGAGLLRPSETLSLTCAVYGESFSGYYWNWIRQPPGKGLEWIGEINHSGSTNYNPSLKSRVTISVDTSKTQFSLKLSSVTAADTAVYYCARGWDLLDWNDYWNEYWGQGTLVTVSS VL: EIVLTQSPATLSLSPGERATLSCRASQSVSSYLAWYQQKPGQAPRLLIYDASNRATGIPARFSGSGSGTDFTLTISSLEPEDFAVYYCQQRSNWPLTFGGGTKVEIKR | 3.9 | 1.1 | no binding (tested: 300 nM) | 6.3 | 1.1 | 0.5 | 2.6 | 1.1 |  |  |  |  |  | 
Fab fragment of antibody 15431 (Fab, V domains shown, not shown: a dimerising Fc or GST, monomeric Fab made by GingisKHAN digestion of the IgG1) VH: QVQLQQSGPGLVKPSQTLSLTCAISGDSVSSNSAAWNWIRQSPSRGLEWLGRTYYRSKWYNDYAVSVKSRITINPDTSKNQFSLQLNSVTPEDTAVYYCARDDDWNDFDYWGQGTLVTVSS VL: EIVLTQSPATLSLSPGERATLSCRASQSVSSYLAWYQQKPGQAPRLLIYDASNRATGIPARFSGSGSGTDFTLTISSLEPEDFAVYYCQQRSNWPLTFGGGTKVEIKR |  | 1.1 | no binding (tested: 300 nM) |  | 0.6 | 0.5 | 10.6 | 0.6 | no binding (tested: 300 nM) | no binding (tested: 300 nM) |  |  |  | 
Fab fragment of antibody 15572 (Fab, V domains shown, not shown: a dimerising Fc or GST, monomeric Fab made by GingisKHAN digestion of the IgG1) VH: QLQLQESGPGLVKPSETLSLTCTVSGDSISSSSYYWGWIRQPPGKGLEWIGSIFYSGNTYYNPSLKSRVTISVDTSKNQFSLKLSSVTAADTAVYYCAREDDFLTDYYGAFDIWGQGTMVTVSS VL: not shown |  | 0.7 |  |  | 0.6 |  |  |  | no binding (tested: 300 nM) | no binding (tested: 300 nM) | 0.7 | no binding (tested: 300 nM) | no binding (tested: 300 nM) | no binding (tested: 300 nM)
Fab fragment of antibody 15011 (Fab, V domains shown, not shown: a dimerising Fc or GST, monomeric Fab made by GingisKHAN digestion of the IgG1) VH: EVQLLESGGGLVQPGGSLRLSCAASGFDFRSYAMMWVRQAPGKGLEWVGGINGEVGGSNTYYAPAVKGRATISRDNSKNTLYLQMNSLRAEDTAVYYCVKGAGACGICNDDIDAWGQGTLVTVSS VL: SYELTQDPAVSVALGQTVRITCSGAGSYAGSYYYGWHQQKPGQAPVTVIYDNDKRPSNIPDRFSGSSSGNTASLTITGAQAEDEADYYCGSTNDNDDGGLFGSGTKVTVLG | 0.5 | 1.8 |  | 7.2 | 2.1 | 0.6 | 1.9 | 0.7 |  |  | 0.6 |  |  | 
